Results as given in the DeepSol protein solubility set.

Test: soluble on expression in E. coli; label from the status in PepcDB or PDB records
In the case of “MSDLVMFEPGASTSTDVPTNTDQTAMSTTQVVDALECDTFEGLMNVNETYVEILDSALLSVQQHLDDNLKRQQQLKEEYRLYNRADITKRKVPVHLYMPPYFKDDNNMYPPMSSEAREKQVLKWFDPMMKEEKKWTPSEIKTLRTSVKNALVAHQVQPWCSRRDIVASKLRDADITTSNFDRRQWTMELEDLMRKIAYVREKSEEEVLTASADYTVVPWTAIANFDFKGSRTEWAVKSKWYNELNPKWNKEHWSNEEVEKLKYLRESPKFVSWPMLALNLGTNRTSYQCMEKYKTEVSQHSKEWSQDEDTKLIALTKITSINGHIQWDKVAQCMPGRTRQQVRTRFSHTLDASVKHGRWTDQEDVLLVCAVSRYGAKDWAKVAQAVQNRNDSQCRERWTNVLNRSAHVNERFTLVEDEQLLYAVKVFGKGNWAKCQMLLPKKTSRQLRRRYLQLIAAKLRLAAGFCNAVDAMKSGRRAPEEDELEQEDIVEAEQIPNELMKEVYEKFANENPDMNETPEEFYKRVSALERPAAARIRALKNKPDYQKIQDKINEIVQKHKNAAEIDKELHSSEILSSLTITEVDVRYMIERSKTLTRYYEARQFRKNVDQIGCRVRPIKIDLDPETMPTFDPNDAEDEKQMVIVESLCSVIRAHDVKEWGTKFWNEHRFTAPKYAKRFVENMVINKSKEVAEWYLHVNSKSCNQNDVHCPAKSTLPPTAASFDLHKMLQKARSGLNRLSAEHFYPLDVSLAQQFNFKNDEREGLDGDRRMHIGLSDEVTNSKEYANFYARMRSILLEPMRLGIARESSSDETKRLVRCLAEERACDEEQQVTCDQIRRRRMPDDEIYVTPTSISRELNNGMKIDTTELLANLDKNSAKKIRMKRKIGEVRCDTKIKLLPLVILATVATVAARPARPPRSSAGTPTPSHVSIDTESNISLKVELD”, the “soluble on expression in E. coli” value is reported as “not soluble”. With “MDTSDHKPLIDRFETEFAEKSSLLRKEESELKRPDLRGDFLCLSCGQNFKHGASLNRHRKLVHSDEYTCMLCARKLYLKETVRDHMRNEHYLGQVYTCGCCNWTFSNKKALTEHAKAIQETGAPGDANPIAKSGNSPGSLLKSPIQRAGFKLNRLLNKSLSPSTSNSTTSSSSRDASGSPQPELELKLEPEPEPEPNEEALEYKRFFNNAVDTILQRNFFTDQQITEVDTWVIIIESANALATALQSYKKAQQIQPAEPAMIPEKRIKPEIE” the “soluble on expression in E. coli” value was “soluble”. With “MDGQADGMFIDRAEDARKQEITEQYLNFLDNQADTFHYRQKIVKMMNDGESRLVMNLDEIREILPERAEGLLTQSVLEMNCLQSALQMAINRSDVQAVVKTGFHVGFEGTFGERHVNPRTLKSSYLGNLVCCEGIVTKCSTVRQKLLTSVHYCPATNKVLEKKFADFTMLDTAVTNNNYPTEDENKNPLETEFGHSVYKDHQTFTIQELPESAPAGQLPRAVDCVADLDLADRVKPGDRVRIIGVFRVLPNKQNGVSSGSFRSIIIINHIQMLSKEVIPNFEPQDVKDVRKISKSRNPFELLARSLAPSICGHEETKKALLCLLLGGMEKILNNGSRLRGDINVLLIGDPSVAKSQLLRYVLRMAPRAITTTGRGSSGVGLTAAVTTDPDSGERRLEAGAMVLADRGVVCIDEFDKMSDIDRTAIHEVMEQGRVTISKAGIHAKLNARCSVLAAANPVYGRYNPFKSPMENIGMQDSLLSRFDLIFVLLDEHDADKDANVAEHVLKLHTYRTQGEADGTVLPMGGGVETISTINMETKKASSSIYEENTQWAGIQDTKILTMDFMRKYIHLARSVQPKLTDEATEYISEVYADIRSFDITKTDQERTMPVTARQLETLIRLSTAIAKARFSKKVEREDTEKAYNLLHFACFKEKPKARQEYEKKKRAPRIDGDDDEDQSDNEDMATSEEPQSSSVPTAATPRRGVRRRAEDDDSQDSMMDTTIGESQPTAKKARTGPAAIGVDRYKELRKYVRKAFDDIGSTDDMVELQIITDSVQTQAGSHKFTEDELKAGYEQLENDNAAMIAEDKITLI” the “soluble on expression in E. coli” value was “not soluble”. With “MGSDKIHHHHHHMTFEKNEHKDIAVIGAGPVGMLAALNLAHKGYSVCLIGPPVDTDELRTTALMMPAIHMLQKLNIWNIVKSHAAALSFIRIIDITSRIIRAPTVNFSSAEIGEEAFGYNIPNVELNNALVASVAHTPNIKRFFSSAHFFHHQPNHIHVTLADGGVVQASLIVAADGRDSRTREAADISVKKWNYPQTALVLNFSHDLSHQNTSTEFHTESGPFTQVPLPGHRSSLVWVVNPSRAEELLRLESKVIAKVIEEQMQSMLGKLTLETPIQAWPLSGLISQRFAANRTILVGEAAHVFPPIGAQGLNLGFRDIQTLIDILPNKISDFNSKKIVAHYNKCRKPDILIRSGSVHMFNSALLSNMLPVHIIRSFGLGLLRNCSPLRNLFTREGIYPGYGFKKIMQTFPIKSHKQESSIFFSVLVKDRDSEMISKSSLF” the “soluble on expression in E. coli” value was “not soluble”. With “MKTSSYLLKAGVDYPTNWDEFVDWFHDEQSCTSYLYALRWPNGFICPSCSSHQSPYQLSNGKLKCHACRFQCSVTSSTLFDKTRTPMKSWFAAVWFITNQKNGVSALGVQRLLGLGSYQTAWSLMHKLRYAMVDPERDKLSGIVEVDETLIGGVIPKSSIKNQQGKRKAIVLVAVELLSPSGFGRIRLRQVESATKEHIHQFIQDVIEPGSTICSDGSQAYKQIDKKGYKHNRMVHLGSSVPAHETMAGVHRVSSLCKRWLLGTYQGAVKAKQLDYYLDEFTFRFNRRKSDSRGLLFYRLLEQAVRSKPITYQSIKNRLEHHHHHH” the “soluble on expression in E. coli” value was “not soluble”. With “MRTRLLAILLAVWPAACATAEPACRDLTFEDTRYSLCEAQAGDDIRIFQTAPDGRPYGSFERINSALEGEGRQLAFAMNAGMYHADRRPVGLLIEEEVERAPLVTSAGPGNFGLLPNGVFCVGDGFRVIESRAFAAERPTCRHASQSGPMLVIGGELHPRFLVDSDSRYIRNGVGVSADGRRAVFAISNRPVTFHEFGRLFRDELGLPEALYFDGSISRLYDRGARRSDWGTPMGPIVGLVVPKPLEHHHHHH” the “soluble on expression in E. coli” value was “not soluble”. For “MGSDKIHHHHHHMPVTHLAGALCHPTDCTLRASNSQHIATRFNEHSSVSHTRDLDRVQVAERWSRIKECNYVPVKVANTRADLGESLVWDERSGVLYFVDISGGRINGLTPDGEVDCLYESAARIGALALTDRGNLIFTEDASVAIFDVPTRKVSQHSASVHPRSTYRFNDGACDPQGRFVTGLMDEALSDNTGALFRFDWQLSDQVIHDDMGLPTGLAWSHDGHTVYFVDSAARAIYRAEYLIEGRLGAVTLFAETPAELGRPDGLALDREGGLWVCQYHGSCLLRYDRHGYLTDQVLMPVPCPTSCCFGGPGMNTLYISTARYDMTPEDLHHYPDAGDLYAIRPETGGVARHSFKE”, the “soluble on expression in E. coli” value was “not soluble”. For “AIAVHQASPVKNISDTRPKRSPEYWYYYCTYEDNSVKSPLVPGLKVETQAVADRFSADIFSAVERYNQLFSEVQKQSFKYVPEEESDNQSN”, the “soluble on expression in E. coli” value was “soluble”. In the case of “MIIPALDLIDGTVVRLHQGDYARQRDYGNDPLPRLQDYAAQGAGVLHLVDLTGAKDPAKRQIPLIKTLVAGVNVPVQVGGGVRTEEDVAALLKAGVARVVIGSTAVKSPDVVKGWFERFGAQALVLALDVRIDEHGTKQVAVSGWQENSGVSLEQLVETYLPVGLKHVLCTDISRDGTLAGSNVSLYEEVCARYPQIAFQSSGGIGDIDDIAALRGTGVRGVIVGRALLEGKFTVKEAIQCWQNV”, the “soluble on expression in E. coli” value is reported as “not soluble”. With “MERPQLDSMSQDLSEALKEATKEVHIRAENSEFMRNFQKGQVSREGFKLVTASLYHIYTALEEEIERNKQNPVYAPLYFPEELHRRAALEQDLAFWYGPHWQEAIPYTPATQHYVKRLHEVGGTHPELLVAHAYTRYLGDLSGGQVLKKIAQKALALPSSGEGLASFTFPSIDNPTKFKQLYRARMNTLELTPEVKHRVTEEAKTAFLLNIELFEELQALLTEEHKDQSPSQTEFLRQRPASLVQDTTSAETPRGKSQISTSSSQTP” the “soluble on expression in E. coli” value was “soluble”. In the case of PEKVTVVPKFGDWDENNPSSADGYTHIFNKVREER, the “soluble on expression in E. coli” value is reported as “soluble”. In the case of “AIALVEDSGHHLPESADIENALDLLLKAQLERAFGPELAEHFWAARQPRTLDERLAFIRKCWIGVFKDSPLSTFGLERLEQLERLCRSKRRGRELSAAEHHQFAEELARLWEQVQRLLPRAAPETSYASSASAGGVHSGDAHTPATLSDAESAHAAPEAMRIEAPATSARSASGCMARVSSDVAAAATNVSLVVLDGENIAWAHGQNAVFSPKGIAIAVDFFRKRGYRCVVFLPDYRRKRADLPTVSASDALVFVPAGEYDDTFALGYAVGHDAILVTNDLLQDHLDQFYPDEGEAREALRKWLGSHRCSFTFVGDEFLPNPHFFLP”, the “soluble on expression in E. coli” value is reported as “soluble”. In the case of “SLAAGVLPQNEQPYSTLVNNSECVANMKGNLERPTPKYTKVGERLRHVIPGHMACSMACGGRACKYENPARWSEQEQAIKGVYSSWVTDNILAMARPSSELLEKYHIIDQFLSHGIKTIINLQRPGEHASCGNPLEQESGFTYLPEAFMEAGIYFYNFGWKDYGVASLTTILDMVKVMTFALQEGKVAIHCHAGLGRTGVLIACYLVFATRMTADQAIIFVRAKRPNSIQTRGQLLCVREFTQFLTPLRNIFSCCDPKAHAVTLPQYLIRQRHLLHGYEARLLKHVPKIIHLVCKLLLDLAE”, the “soluble on expression in E. coli” value is reported as “soluble”. For “MSKSALHAFIDRARADEDFRSKLAHLDPNQIIEFAGQHGFLFSDEIKGRFINRWSGVYFCPQAIEVGQLCPALVPDGYKNLIHYAQSTCSSSNLSEEERDFRSGIKY”, the “soluble on expression in E. coli” value was “not soluble”. In the case of “MAHHHHHHMSSDTMPFKLVEPFVLFHTIFSDDFQHPQVAMITQACGSHSTASNQSTSHFLQIFFDFPLHVEPNEAPTDLIFLCKWGTSHSSHTPPHGNDVNVTRTNFLFRQCSQKKSATDY”, the “soluble on expression in E. coli” value is reported as “not soluble”. For “MGSDKIHHHHHHMKLSGWGRFPNVDCTVRVARSEVDVRAAVAASPLIARGNGRAYGDAALNRGLTLDMTGMDRMLSFEDGVLVAEAGVLLGDIIHTFLPRGWFPMVTPGTKYVSLGGAIAADVHGKNHHLDGSFRSCVDWVDLMGPDGAVTRVTREDDLFDWTLGGMGLTGVILRAQIRLRAVETSFIAQETRALTSLTDTLEAFEDTLDALYSVAWIDCSDGPHHGHSLLLLGRHATPGDLPKRQKPLEVKRRAKLPVPFGAPPFLFRGLWLRALNGIYWRRGAKRAGHTIVDWDSYFYPLDALANWNRLYGRNGFLQFQCALPLETAADGLAALMAEIAASQSGSVLSVLKRFGPQSGHFSFPMPGYTLALDFPANERSLALMERLDAITLAHKGRFYLAKDARMPEAVVKADARAEAFAAMRTQMGLRDRFASEQSERLGL”, the “soluble on expression in E. coli” value was “not soluble”. With “MTDRGIVFNIQHFSIHDGPGIRTTVFLKGCPLRCPWCANPESQQKAPEQMLTSDGLNTKIVGEEKTVDEVIEEVLKDLDFYEESGGGMTLSGGEIFAQFDFALALLKAAKAAGLHTAIETTAFAKHEQFVTLVDYVDFIYTDLKHYNQLRHQKVTGVRNDLIIKNIHYAFQAGKEIVLRIPVIPQFNDSLDDAKAFSELFNQLEIDQVQLLPFHQFGENKYKLLGREYEMAEVKAYHPEDLADYQAVFLNHNIHCYF” the “soluble on expression in E. coli” value was “not soluble”. For “MGLKEKLIRKGKYIWELPKETIEGQRVPVILYLSDALFELLEEDALRQAANAATLPGVEKAIYVMPDVHVGYGFPVGGVMATNTETGIISPGSIGYDINCGVRLIATNLKAVDVAPRIKEIMNNMLKNVPAGVGSTSEIKLSKSQMKEVLVKGAGWAVEHGFGFPEDLQHIEGFGALPNADPEKASHEAYERGSDELGTVGSGNHFVEVQAVEQIYEPEIAEKLGIWEGQVMVMVHSGSRGFGHQVCTDYLRVALKVRDKYKIKLPDPQLACMPFNSPEGQAYFKAMNAAANYAFANRQILGFKAANTVRKTLGISWEEFGYRLIYDHAHNIGKVEKHEVDGKKVEVIVHRKGATRAFPPYNPEVPPAYREVGQPVIIPGDMGRASFLLVGQTNSMKMSFGTACHGAGRVMSRRQAKKYVKEVGLEKVIGNLVVVARGKGTIMEEIPQAYKDVTEVVRVIDELGIAKAVARLKPLGTLKG”, the “soluble on expression in E. coli” value was “soluble”. With “MAYSNDEIVKGIDGIYSNENPNSNIKYVINESRFNASQLCKTKKGIKQMSDEWLLEDGGKRILEAVNGDRKLQKDIIRVLNKGQVEKVLSRVGKDGKVTTYRLNSNGEIIGFWP” the “soluble on expression in E. coli” value was “not soluble”.
